Reference: the supplement of paper PMC7877785
± gives the uncertainty stated by the source.

Test: self-splicing fitness, log relative to wild type (ln ratio); higher = more splicing; Tetrahymena group I intron in knt gene, E. coli kanamycin selection, DiMSum; sequences stand for … in CUCUCU…GGAGGGAAAAGUUAUCAGGCAUGCACCUGGUAGCUAGUCUUUAAACCAAUAGAUUGCAUCGGUUUAAAAGGCAAGACCGUCAAAUUGCGGGAAAGGGGUCAACAGCCGUUCAGUACCAAGUCUCAGGGGAAACUUUGAGAUGGCCUUGCAAAGGGUAUGGUAAUAAGCUGACGGACAUGGUCCUAACCACGCAGCCAAGUCCUAAGUCAACAGAUCUUCUGUUGAUAUGGAUGCAGUUCACAGACUAAAUGUCGGUCGGGGAAGAUGUAUUCUUCUCAUAAGAUAUAGUCGGACCUCUCCUUAAUGGGAGCUAGCGGAUGAAGUGAUGCAACACUGGAGCCGCUGGGAACUAAUUUGUAUGCGAAAGUAUAUUGAUUAGUUUUGGAGUACUCGUGGUCG
Method in brief: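 Fitness was computed with DiMSum as the error-weighted combination of replicate fold changes, kanamycin versus none, each normalised to wild type. The library randomised all eight intron nucleotides of the P1ex region, with the intron placed in the knt kanamycin-resistance gene on pET-22b(+) in E. coli BL21(DE3). Six replicate transformations were grown overnight at 37°C or 30°C on LB agar with or without 25 μg/mL kanamycin, plus 100 μg/mL carbenicillin, 50 μM IPTG and 0.2% rhamnose. Pooled colonies were amplicon-sequenced on an Illumina HiSeq 2500.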

Sequence | self-splicing fitness (ln) (30 °C) | self-splicing fitness (ln) (37 °C)
UGUUAGCAAUAUUACGCAUA | -1.72 ± 0.21 | -0.397 ± 0.16
AACUAGCAAUAUUACGGCUU | 0.0162 ± 0.065 | -0.0298 ± 0.091
UUUUAGCAAUAUUACGGAGG | -2.86 ± 0.27 | -1.48 ± 0.22
AUUGAGCAAUAUUACGAGAG | – | -2.66 ± 0.29
ACCUAGCAAUAUUACGCGGC | -3.53 ± 0.33 | -1.38 ± 0.17
AUCCAGCAAUAUUACGAUCA | -1.43 ± 0.12 | -1.09 ± 0.14
GUGCAGCAAUAUUACGGUCG | -1.29 ± 0.053 | -0.792 ± 0.075
CAUUAGCAAUAUUACGUUGG | -2.05 ± 0.085 | -1.03 ± 0.1
CAACAGCAAUAUUACGUGAU | -2.64 ± 0.075 | -2.19 ± 0.1
CGAUAGCAAUAUUACGACCG | -1.44 ± 0.21 | 0.156 ± 0.24
GAUAAGCAAUAUUACGUCUC | -1.74 ± 0.085 | -0.95 ± 0.1
AAGUAGCAAUAUUACGCCCG | -1.26 ± 0.23 | -0.559 ± 0.22
AUGAAGCAAUAUUACGAUCA | -0.14 ± 0.081 | 0.405 ± 0.11
CUGUAGCAAUAUUACGAGCG | -0.681 ± 0.094 | 0.0625 ± 0.12
UGCUAGCAAUAUUACGAGUU | -1.64 ± 0.11 | 0.518 ± 0.12
AUCGAGCAAUAUUACGUGUU | -2.9 ± 0.22 | -2.42 ± 0.29
UGAAAGCAAUAUUACGCCUU | -0.914 ± 0.2 | -2.01 ± 0.34
CAGGAGCAAUAUUACGGAUC | -4.29 ± 0.23 | -3.84 ± 0.34
AACGAGCAAUAUUACGUAGG | -3.93 ± 0.21 | -2.49 ± 0.18
CGCGAGCAAUAUUACGGUGC | – | -2.47 ± 0.5
AUCCAGCAAUAUUACGUUUG | -2.58 ± 0.12 | -2.93 ± 0.18
GGCGAGCAAUAUUACGACUG | -0.978 ± 0.24 | -0.589 ± 0.29
UCGAAGCAAUAUUACGGACU | -1.07 ± 0.11 | 0.0804 ± 0.13
CACCAGCAAUAUUACGGUUG | -2.85 ± 0.094 | -1.04 ± 0.11
AGUUAGCAAUAUUACGUUGU | -4.38 ± 0.37 | -3.36 ± 0.37
AACUAGCAAUAUUACGUUUG | -3.27 ± 0.15 | -1.72 ± 0.14

Sequence | self-splicing fitness (ln) (30 °C) | self-splicing fitness (ln) (37 °C)
UACAAGCAAUAUUACGUGUG | -2.96 ± 0.11 | -1.7 ± 0.1
UUAAAGCAAUAUUACGAGCU | -0.888 ± 0.073 | -0.532 ± 0.1
UGGCAGCAAUAUUACGCCCG | -0.568 ± 0.14 | -0.317 ± 0.21
AUGAAGCAAUAUUACGGGAU | -0.638 ± 0.056 | -0.499 ± 0.093
GCCGAGCAAUAUUACGAGUG | -2.22 ± 0.14 | -2.16 ± 0.13
UGACAGCAAUAUUACGCUCG | -1.1 ± 0.11 | -0.143 ± 0.14
CUUUAGCAAUAUUACGCGUG | -1.89 ± 0.14 | -1.12 ± 0.17
CGAUAGCAAUAUUACGAAAC | -1.44 ± 0.32 | –
UUCGAGCAAUAUUACGACAU | -3.097 ± 0.026 | -1.94 ± 0.038
GGACAGCAAUAUUACGCCUU | -0.676 ± 0.057 | -0.194 ± 0.069
UCAGAGCAAUAUUACGCACG | -3.39 ± 0.29 | -1.37 ± 0.21
GGUUAGCAAUAUUACGUGAA | -0.107 ± 0.13 | -0.9 ± 0.14
GGGUAGCAAUAUUACGUGCG | -0.234 ± 0.097 | -0.0569 ± 0.12
CUUAAGCAAUAUUACGAUGA | -3.04 ± 0.43 | -0.126 ± 0.22
CCGCAGCAAUAUUACGGUGU | -3.97 ± 0.16 | -1.89 ± 0.14
CUCAAGCAAUAUUACGAGCC | – | -2.67 ± 0.3
CGCGAGCAAUAUUACGCCUG | -2.95 ± 0.34 | -1.99 ± 0.26
AAAUAGCAAUAUUACGACCG | -0.956 ± 0.15 | -0.441 ± 0.19
GUAGAGCAAUAUUACGUAGU | – | -0.866 ± 0.15
CUAAAGCAAUAUUACGGUUG | -0.57 ± 0.056 | -0.138 ± 0.081
GAUGAGCAAUAUUACGUUAA | -2.39 ± 0.32 | –
UCUGAGCAAUAUUACGGGCG | -1.33 ± 0.17 | -2.56 ± 0.22
AUGGAGCAAUAUUACGGUCC | -3 ± 0.32 | -0.466 ± 0.31
GGCCAGCAAUAUUACGGAUA | -1.41 ± 0.12 | -1.02 ± 0.14
UCCAAGCAAUAUUACGCCGU | -0.285 ± 0.13 | -0.0434 ± 0.19
AGAUAGCAAUAUUACGAACA | -1.15 ± 0.11 | -0.00294 ± 0.12

Sequence | self-splicing fitness (ln) (30 °C) | self-splicing fitness (ln) (37 °C)
CUAGAGCAAUAUUACGUCAA | -3.76 ± 0.24 | -2.23 ± 0.21
GAACAGCAAUAUUACGCUGU | -3.8 ± 0.14 | -2.99 ± 0.19
GGUGAGCAAUAUUACGAGCC | – | -1.52 ± 0.43
AAUUAGCAAUAUUACGACUC | -0.246 ± 0.11 | 0.0749 ± 0.16
GGUCAGCAAUAUUACGGAGG | – | -2.54 ± 0.36
AUAUAGCAAUAUUACGCCCU | -0.155 ± 0.15 | 0.32 ± 0.18
GCAGAGCAAUAUUACGUGGA | -2.94 ± 0.4 | -3.35 ± 0.39
GAUAAGCAAUAUUACGAGUA | -1.84 ± 0.15 | -1.45 ± 0.14
AGCUAGCAAUAUUACGUUUC | -4.92 ± 0.25 | -2.56 ± 0.16
AGGAAGCAAUAUUACGCUCU | -2.56 ± 0.22 | -1.99 ± 0.29
UCAGAGCAAUAUUACGGCUG | -2.49 ± 0.19 | -0.448 ± 0.2
CUUCAGCAAUAUUACGAUUG | -0.473 ± 0.045 | 0.038 ± 0.063
UAGUAGCAAUAUUACGUCCA | -0.915 ± 0.37 | –
ACCAAGCAAUAUUACGUAGC | -3.58 ± 0.13 | -2.44 ± 0.13
CCCUAGCAAUAUUACGUGGU | -4.61 ± 0.2 | -2.27 ± 0.14
AGGUAGCAAUAUUACGGCAA | -0.557 ± 0.017 | -0.339 ± 0.034
CUUAAGCAAUAUUACGAGUG | -1.39 ± 0.068 | -0.428 ± 0.1
UCGGAGCAAUAUUACGUUGC | -2.44 ± 0.28 | -1.78 ± 0.42
CGCCAGCAAUAUUACGGGUG | -4.13 ± 0.14 | -2.58 ± 0.12
CACUAGCAAUAUUACGAACU | -2.65 ± 0.1 | -1.99 ± 0.15
AGGUAGCAAUAUUACGAUAU | -1.16 ± 0.014 | -0.423 ± 0.034
CCUGAGCAAUAUUACGAGAA | -3.46 ± 0.4 | -1.79 ± 0.29
UUUCAGCAAUAUUACGGUGA | -0.66 ± 0.056 | -0.395 ± 0.064
AUAGAGCAAUAUUACGUUCA | 0.258 ± 0.11 | -0.633 ± 0.12
CGCCAGCAAUAUUACGCGGU | -3.04 ± 0.13 | -3.3 ± 0.22
GCAAAGCAAUAUUACGUACU | -0.928 ± 0.067 | 0.299 ± 0.095
